Consider three molecules from PMC4356368, “Four crystal structures of human LLT1, a ligand of human NKR-P1, in varied glycosylation and oligomerization states” (Acta Crystallographica Section D: Biological Crystallography, 2015).

For data set [1], the target named is LLT1 produced in the HEK293T cell line with wild-type complex N-glycosylation (human). The data set is described as follows: AUC; sedimentation velocity, 50 000 rev/min, 20°C, absorbance 280 nm, 10 mM HEPES pH 7.5, 150 mM NaCl, 10 mM NaN3; several concentrations (HEK293T protein at 0.2 mg/ml and tenfold diluted; GnTI- protein at five concentrations); continuous size-distribution and monomer-dimer self-association models; dimer to monomers.

Data set [2] concerns the molecule itself. The data set is described as follows: crystal structure; LLT1_D1 and LLT1_D2: deglycosylated protein, 30%(w/v) PEG 6000, 0.1 M HEPES pH 7.0, 294 K; one dimer in the asymmetric unit, P212121.
Data set [3] deals with the molecule itself. The data set can be described thus: dynamic light scattering; 1 mg/ml in 10 mM HEPES, 150 mM NaCl, 10 mM NaN3 pH 7.5; 291, 298 and 303 K.
Data set [4] deals with the molecule itself. The data set is described as follows: crystal structure; LLT1_glyco: GlcNAc2Man5-glycosylated protein, 40%(v/v) PEG 300, 0.1 M citrate-phosphate pH 4.2, 288 K; P6322, hexamer of three dimers by crystal symmetry.
Data set [5] concerns the molecule itself. The data set is described as follows: AUC; sedimentation velocity, 50 000 rev/min, 20°C, absorbance 280 nm, 10 mM HEPES pH 7.5, 150 mM NaCl, 10 mM NaN3; several concentrations (HEK293T protein at 0.2 mg/ml and tenfold diluted; GnTI- protein at five concentrations); continuous size-distribution and monomer-dimer self-association models; dimer to monomers.

Molecule “LLT1 produced in the HEK293T cell line with wild-type complex N-glycosylation (domain or fragment)” had a stoichiometry N in data set [1] of 2.

B1: Human LLT1 C-type lectin-like extracellular domain (Gln72-Val191, His176Cys), deglycosylated after the first N-acetylglucosamine unit (domain or fragment)
chain: ITGQAACPESWIGFQRKCFYFSDDTKNWTSSQRFCDSQDADLAQVESFQELNFLLRYKGPSDHWIGLSREQGQPWKWINGTEWTRQFPILGAGECAYLNDKGASSARCYTERKWICSKSDIHV
modifications: single N-linked GlcNAc left at Asn95 and Asn147 after Endo F1
notes: remnant of the secretion leader at the beginning of the chain; LLT1 (lectin-like transcript 1), human, UniProt Q9UHP7 isoform 1, CTL extracellular domain Gln72-Val191 with His176 to Cys176; Same polypeptide as m1; it differs only in the glycans; L-arginine-HCl (0.4 M) was added after deglycosylation; also called LLT1_mono; LLT1_D1
Take B1: the “stoichiometry N” value in data set [2] was 2.

B2: Human LLT1 C-type lectin-like extracellular domain (Gln72-Val191, His176Cys) with homogeneous GlcNAc2Man5 N-glycosylation (domain or fragment)
chain: B1 chain
modifications: N-linked GlcNAc2Man5 glycans at Asn95 and Asn147
notes: remnant of the secretion leader at the beginning of the chain; LLT1 (lectin-like transcript 1), human, UniProt Q9UHP7 isoform 1, CTL extracellular domain Gln72-Val191 with His176 to Cys176; the construct is described in Bláha et al. (2015); also called LLT1_glyco; glycosylated LLT1; source: HEK293S GnTI- cells, transiently transfected, secreted, purified (Talon IMAC, Superdex 200 SEC)
On to B2, for which the “stoichiometry N” value in data set [3] is 2; in data set [4], 6. In addition, the Kd in data set [5] is around 20 µM.
